Measurements: patent publication EP4725966A1, “HUMAN EPIDERMAL GROWTH FACTOR 3 ANTIBODY, PREPARATION METHOD THEREFOR, AND USE THEREOF” (priority 2023, dated 2024)
Substitutions are numbered along the chain they refer to. Blank lines part the entries; values can stand above or below the binder they belong to.

Legend:
[1] = molecular target: human HER3-ECD-His (human) (UniProt P21860); experiment: ELISA on coated human HER3
[2] = molecular target: human HER3 on cells (human) (UniProt P21860); experiment: FACS on Human HER3-CHO cells
[3] = molecular target: cynomolgus HER3-ECD-His (cynomolgus monkey) (UniProt G7PIG5); experiment: ELISA on coated Cyno HER3
Sequence of cynomolgus HER3-ECD-His (cynomolgus monkey) (G7PIG5 entry or part of it): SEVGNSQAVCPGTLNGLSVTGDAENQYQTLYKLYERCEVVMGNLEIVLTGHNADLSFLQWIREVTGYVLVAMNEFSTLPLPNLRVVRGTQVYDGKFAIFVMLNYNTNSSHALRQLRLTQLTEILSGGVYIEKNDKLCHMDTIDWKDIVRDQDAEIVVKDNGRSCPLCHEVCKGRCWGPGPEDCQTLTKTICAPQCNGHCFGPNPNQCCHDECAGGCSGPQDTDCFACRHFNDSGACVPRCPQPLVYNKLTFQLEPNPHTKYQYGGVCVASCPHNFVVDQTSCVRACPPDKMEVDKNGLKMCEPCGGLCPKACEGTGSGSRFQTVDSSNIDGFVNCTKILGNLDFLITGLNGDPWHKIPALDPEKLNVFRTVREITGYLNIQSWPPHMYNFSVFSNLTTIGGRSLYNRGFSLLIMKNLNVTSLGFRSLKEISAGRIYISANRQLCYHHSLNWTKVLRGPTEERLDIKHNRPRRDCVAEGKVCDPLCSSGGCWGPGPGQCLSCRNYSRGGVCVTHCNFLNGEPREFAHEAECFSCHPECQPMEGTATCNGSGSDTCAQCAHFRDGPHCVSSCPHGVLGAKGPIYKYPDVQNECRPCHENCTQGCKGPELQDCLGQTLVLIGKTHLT

B2: mHE1 (antibody, V domains shown)
VH: EVKLQESGPGLVKPSQSLSLTCSVTGYSITSGYYWNWIRQFPGNKLEWMGYISYDGSNNYNPSLKNRISITRDTSKNQFFLNLNSVTTEDTATYYCARVDWDGDAMDYWGQGTSVTVSS
VL: DIVLTQSPASLAVSLGQRATISCRASESVDNYGIRLMHWYQQKSGQPPKLLIHRASNLESGIPARFSGSGSRTDFTLTINPVETDDVATYYCQQSNKDPFTFGSGTKLEIKR
OD450 [1]: 1.86 OD450 | MFI [2]: 173 MFI | OD450 [3]: 1.77 OD450

B3: mHE2 (antibody, V domains shown)
VH: B2 VH with N82K, V99M
VL: B2 VL with R35S, S44P, H53Y, F100P, S104A, I110L
OD450 [1]: 1.96 OD450 | MFI [2]: 195 MFI | OD450 [3]: 1.77 OD450

B5: mHE6 (antibody, V domains shown)
VH: EVQLQQSGPDLVKPGTSVKMSCKASGYTFTDYYMHWVRQSHGKSLEWIGYINPNNGDAIYNQKFKGKATLTVNKSSTTAYMALRSLTSEDSAVYFCATYDYGGDFYFDVWGTGTTVTVSS
VL: DIELTQSPALMSASPGEKVTMTCSASSSVSYMYWYQQKPRSSPKPWIYLTSNLASGVPARFSGSGSGTSYSLTISSMEAEDAATYYCQQWSRNPLTFGAGTKLELKR
OD450 [1]: 2.12 OD450 | MFI [2]: 205 MFI | OD450 [3]: 1.51 OD450

Second part, the binder after the results:

OD450 [1]: 2.07 OD450 | MFI [2]: 199 MFI | OD450 [3]: 1.87 OD450
B1: mHE4 (antibody, V domains shown)
VH: EVQLVESGGGLVKPGGSLKLSCAASGFTFSSYVMSWVRQTPEKRLEWVATISDGDSSTYYPDNVKGRFTISRDNAKNNLFLQMSHLKSEDTAMYFCARDKGHGYDEGAFVYWGQGTLVTVSA
VL: DIQMTQSPASLSASVEETVTITCRASENIYSYLAWYQQKQGKSPQLLVYNAKTLAEGVPSRFSGSGSGTEFSLKINSLQPEDFGSYYCQNHYGTPYTFGGGTKLEIKQ

OD450 [1]: 1.9 OD450 | MFI [2]: 224 MFI | OD450 [3]: 1.82 OD450
B4: mHE5 (antibody, V domains shown)
VH: B2 VH with K3Q, N82K, R98S, V99Y, W101Y, A105W, M106F, D107A, S114L, S119A
VL: B2 VL with N31H, I34S, R35S, L36F, S44P, H53Y, L58P, F100P, S104G
